# Test results taken from the supplement of paper PMC10567573.
# B1: POMT2 (parent)
# chain: LRGGGQVLLGWTLHYFPFFLMGRV
# B2: SLC19A2 (parent)
# chain: FASLRPSEPFLTPYLLGPDKNLTE
# Variants of: B1
# Assay: protein stability index of a GFP-peptide fusion (GPS, HEK-293T) (PSI 1-6); higher = more stable
# Conditions: c terminus: a fixed tail appended
# 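Further: lentivirally expressed fusions sorted by FACS into six bins by GFP to DsRed ratio, PSI derived from sequencing read proportions per bin multiplied by bin number.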
row,Variant,protein stability index
1,L9A,3.06
2,L9C,1.75
3,L9E,1.89
4,L9F,2.91
5,L9H,1.91
6,L9M,3.23
7,L9N,2.66
8,L9P,2.59
9,L9Q,1.61
10,L9T,2.66
11,G10D,3.44
12,G10F,3.45
13,G10I,1.92
14,G10N,1.97
15,G10P,3.23
16,G10Q,3.64
17,G10S,3.85
18,G10T,2.89
19,G10V,2.29
20,G10W,2.32
21,G10Y,3.25
22,W11A,1.93
23,W11C,3.48
24,W11E,1.74

row,Variant,protein stability index
1,W11H,2.1
2,W11K,3.25
3,W11M,1.04
4,W11N,4.22
5,W11Q,3
6,W11R,2.67
7,W11S,1.38
8,W11T,2.09
9,W11Y,1.2
10,T12A,2.59
11,T12H,2.35
12,T12I,3.35
13,T12L,1.93
14,T12S,2.1
15,T12V,3.16
16,T12Y,2.7
17,L13C,1.51
18,L13D,1.29
19,L13E,2.93
20,L13P,2.64
21,L13S,3.02
22,L13W,3.5
23,H14D,4.14
24,H14F,3.28

row,Variant,protein stability index
1,H14P,2.43
2,H14Y,3.36
3,Y15D,1.72
4,Y15E,2.31
5,Y15I,4.09
6,Y15K,2.92
7,Y15R,2.02
8,Y15T,1.39
9,Y15W,2.28
10,F16E,3.44
11,F16G,3.06
12,F16H,3.2
13,F16Q,2.26
14,F16T,3.4
15,P17C,2.18
16,P17D,4.4
17,P17E,1.35
18,P17F,2.59
19,P17I,2.09
20,P17K,2.55
21,P17M,4.38
22,P17N,2.79
23,P17Q,4.16
24,P17R,3.18

row,Variant,protein stability index
1,P17V,2.54
2,P17W,3.06
3,F18E,4.02
4,F18N,2.04
5,F18T,1.98
6,F18V,3.11
7,F18W,1.2
8,F18Y,1.42
9,F19A,2.89
10,F19G,4.57
11,F19N,2.04
12,F19Q,4.97
13,F19S,3.98
14,F19W,3.22
15,F19Y,2.17
16,L20F,4.18
17,L20N,3.25
18,L20P,5.95
19,L20S,1.7
20,L20W,2.38
21,M21A,3.45
22,M21K,2.16
23,M21N,1.43
24,M21S,2.79

row,Variant,protein stability index
1,M21W,4.41
2,G22A,3.58
3,G22C,1.58
4,G22D,3.12
5,G22L,3.83
6,G22P,2.64
7,G22Q,1.28
8,R23C,2.79
9,R23D,1.88
10,R23E,3.15
11,R23I,4.29
12,R23S,2.85
13,R23T,3.19
14,R23W,3.02
15,R23Y,1.9
16,V24A,1.72
17,V24C,1.83
18,V24H,3.69
19,V24I,2.03
20,V24Q,2.04
21,V24R,3.15
22,V24Y,3.27

# Variants of: B2
# Assay: as above
# Conditions: c terminus: a fixed tail appended
row,Variant,protein stability index
1,F1A,4.25
2,F1C,2.8
3,F1D,4.38
4,F1E,4.2
5,F1G,4.22
6,F1H,3.58
7,F1I,3.47
8,F1K,3.79
9,F1L,2.93
10,F1M,3.65
11,F1N,3.81
12,F1P,3.64
13,F1Q,4.19
14,F1R,3.75
15,F1S,4.12
16,F1T,3.44
17,F1V,3.4
18,F1W,2.77
19,F1Y,1.5
20,A2C,1.51
21,A2D,3.64
22,A2E,3.63
23,A2F,2.19
24,A2G,2.74

row,Variant,protein stability index
1,A2H,1.63
2,A2I,1.66
3,A2K,2.84
4,A2L,2.04
5,A2M,2.36
6,A2N,3.64
7,A2P,2.6
8,A2Q,1.72
9,A2R,3.08
10,A2S,3.02
11,A2T,1.97
12,A2V,2.5
13,A2W,2.21
14,A2Y,2.05
15,S3A,1.59
16,S3C,1.23
17,S3D,3.05
18,S3E,1.45
19,S3F,1.93
20,S3G,1.65
21,S3H,1.87
22,S3I,1.69
23,S3K,2.78
24,S3L,1.76

row,Variant,protein stability index
1,S3M,1.74
2,S3N,2.78
3,S3P,2.43
4,S3Q,2.61
5,S3R,1.71
6,S3T,2.83
7,S3V,2.65
8,S3W,1.54
9,S3Y,2.53
10,L4A,1.89
11,L4C,1.61
12,L4D,2.76
13,L4E,2.65
14,L4F,1.93
15,L4G,2.93
16,L4H,1.69
17,L4I,2.44
18,L4K,1.48
19,L4M,1.48
20,L4N,1.74
21,L4P,2.98
22,L4Q,2.15
23,L4R,2.24
24,L4S,1.61

row,Variant,protein stability index
1,L4T,2.23
2,L4V,1.86
3,L4W,3.5
4,L4Y,1.7
5,R5A,2.03
6,R5C,1.99
7,R5D,1.73
8,R5E,2.58
9,R5F,2.32
10,R5G,1.57
11,R5H,2.17
12,R5I,2.13
13,R5K,1.88
14,R5L,2.1
15,R5M,1.94
16,R5N,1.68
17,R5P,2.36
18,R5Q,2.34
19,R5S,2.07
20,R5T,1.98
21,R5V,2.6
22,R5W,2.43
23,R5Y,2.39
24,P6A,1.12

row,Variant,protein stability index
1,P6C,1.99
2,P6D,2.17
3,P6E,1.65
4,P6F,1.58
5,P6G,1.71
6,P6H,1.54
7,P6I,3.26
8,P6K,2.13
9,P6L,1.8
10,P6M,1.36
11,P6N,1.76
12,P6Q,2.16
13,P6R,2.12
14,P6S,1.78
15,P6T,2.7
16,P6V,1.9
17,P6W,2.98
18,P6Y,1.83
19,S7A,1.68
20,S7C,2.28
21,S7D,1.92
22,S7E,1.82
23,S7F,2.01
24,S7G,2.07

row,Variant,protein stability index
1,S7H,2.03
2,S7I,1.5
3,S7K,1.98
4,S7L,1.72
5,S7M,1.24
6,S7N,1.9
7,S7P,1.87
8,S7Q,1.76
9,S7R,1.71
10,S7T,1.75
11,S7V,2.27
12,S7W,3.01
13,S7Y,1.42
14,E8A,1.49
15,E8C,1.68
16,E8D,1.63
17,E8F,1.78
18,E8G,1.99
19,E8H,1.66
20,E8I,2.19
21,E8K,2.1
22,E8L,1.26
23,E8M,1.88
24,E8N,2.3

row,Variant,protein stability index
1,E8P,2.12
2,E8Q,1.69
3,E8R,1.59
4,E8S,1.98
5,E8T,1.81
6,E8V,2.14
7,E8W,2.48
8,E8Y,1.72
9,P9A,2.27
10,P9C,2.26
11,P9D,2.85
12,P9E,1.82
13,P9F,3.54
14,P9G,2.18
15,P9H,1.67
16,P9I,1.77
17,P9K,1.78
18,P9L,2.5
19,P9M,2.37
20,P9N,2.52
21,P9Q,1.98
22,P9R,1.39
23,P9S,1.61
24,P9T,2.48

row,Variant,protein stability index
1,P9V,2.9
2,P9W,2.12
3,P9Y,2.29
4,F10A,2.52
5,F10C,2.11
6,F10D,3.28
7,F10E,2.66
8,F10G,2.3
9,F10H,2.61
10,F10I,2.23
11,F10K,2.72
12,F10L,2.12
13,F10M,2.35
14,F10N,3.22
15,F10P,3.15
16,F10Q,2.44
17,F10R,2.94
18,F10S,2.16
19,F10T,2.15
20,F10V,2.67
21,F10W,2.88
22,F10Y,2.04
23,L11A,2.42
24,L11C,1.86

row,Variant,protein stability index
1,L11D,2.29
2,L11E,2.88
3,L11F,2.63
4,L11G,2.06
5,L11H,2.03
6,L11I,1.58
7,L11K,2.03
8,L11M,2.18
9,L11N,1.78
10,L11P,2.03
11,L11Q,2.09
12,L11R,1.81
13,L11S,1.91
14,L11T,1.94
15,L11V,1.61
16,L11W,3.29
17,T12A,1.79
18,T12C,2.1
19,T12D,1.97
20,T12E,3.47
21,T12F,1.74
22,T12G,2.35
23,T12H,1.72
24,T12I,2
